± gives the standard deviation of the averaged measurements.
Experiment: total protein half-life in vivo (active degradation + dilution); higher = more stable protein
[1] = E. coli NCM3722 delta-clpP delta-lon delta-hslV, growth: N-lim chemostat, doubling time 6 h
[2] = E. coli NCM3722 delta-clpP, growth: N-lim chemostat, doubling time 6 h
[3] = E. coli NCM3722 delta-lon, growth: N-lim chemostat, doubling time 6 h
[4] = E. coli NCM3722 delta-smpB, growth: N-lim chemostat, doubling time 6 h
[5] = wild type E. coli NCM3722, growth: C-lim chemostat, doubling time 3 h
[6] = wild type E. coli NCM3722, growth: C-lim chemostat, doubling time 6 h
[7] = wild type E. coli NCM3722, growth: C-lim chemostat, doubling time 12 h
[8] = wild type E. coli NCM3722, growth: N-lim chemostat, doubling time 6 h
[9] = wild type E. coli NCM3722, growth: N-lim chemostat, doubling time 12 h
[10] = wild type E. coli NCM3722, growth: P-lim chemostat, doubling time 6 h
[11] = wild type E. coli NCM3722, growth: P-lim chemostat, doubling time 12 h
[12] = E. coli NCM3722 delta-hslV, growth: N-lim chemostat, doubling time 6 h

| Sequence | total protein half-life in vivo [1] [h] | total protein half-life in vivo [2] [h] | total protein half-life in vivo [3] [h] | total protein half-life in vivo [4] [h] | total protein half-life in vivo [5] [h] | total protein half-life in vivo [6] [h] | total protein half-life in vivo [7] [h] | total protein half-life in vivo [8] [h] | total protein half-life in vivo [9] [h] | total protein half-life in vivo [10] [h] | total protein half-life in vivo [11] [h] | total protein half-life in vivo [12] [h] |
| --- | --- | --- | --- | --- | --- | --- | --- | --- | --- | --- | --- | --- |
| MDWLAKYWWILVIVFLVGVLLNVIKDLKRVDHKKFLANKPELPPHRDFNDKWDDDDDWPKKDQPKK [Q2EET2] | 4.44 ± 0.075 | 4.57 ± 1.7 | 5.94 ± 1.8 | 4.97 ± 0.94 | 3.28 ± 0.98 | 5.63 ± 0.88 | 6.37 | 5.06 | 9.68 ± 5.2 | 3.81 | 7.42 ± 0.16 |  |
| MAELLLGVNIDHIATLRNARGTAYPDPVQAAFIAEQAGADGITVHLREDRRHITDRDVRILRQTLDTRMNLEMAVTEEMLAIAVETKPHFCCLVPEKRQEVTTEGGLDVAGQRDKMRDACKRLADAGIQVSLFIDADEEQIKAAAEVGAPFIEIHTGCYADAKTDAEQAQELARIAKAATFAASLGLKVNAGHGLTYHNVKAIAAIPEMHELNIGHAIIGRAVMTGLKDAVAEMKRLMLEARG [P0A794] | 5.813 ± 0.038 | 5.468 ± 0.049 | 5.61 ± 0.29 | 5.4 ± 0.14 | 3.17 ± 0.12 | 5.5 ± 0.1 | 11.7 ± 0.53 | 5.9 ± 0.39 | 9.84 ± 0.17 | 6.06 ± 0.43 |  | 5.95 ± 0.48 |
| MDFSIMVYAVIALVGVAIGWLFASYQHAQQKAEQLAEREEMVAELSAAKQQITQSEHWRAECELLNNEVRSLQSINTSLEADLREVTTRMEAAQQHADDKIRQMINSEQRLSEQFENLANRIFEHSNRRVDEQNRQSLNSLLSPLREQLDGFRRQVQDSFGKEAQERHTLTHEIRNLQQLNAQMAQEAINLTRALKGDNKTQGNWGEVVLTRVLEASGLREGYEYETQVSIENDARSRMQPDVIVRLPQGKDVVIDAKMTLVAYERYFNAEDDYTRESALQEHIASVRNHIRLLGRKDYQQLPGLRTLDYVLMFIPVEPAFLLALDRQPELITEALKNNIMLVSPTTLLVALRTIANLWRYEHQSRNAQQIADRASKLYDKMRLFIDDMSAIGQSLDKAQDNYRQAMKKLSSGRGNVLAQAEAFRGLGVEIKREINPDLAEQAVSQDEEYRLRSVPEQPNDEAYQRDDEYNQQSR [P0AG71] | 6.83 ± 1.6 | 5.88 ± 0.096 | 3.82 ± 0.52 | 3.36 ± 0.004 | 2.76 ± 0.076 | 4.87 ± 0.12 | 7.51 ± 0.44 | 3.91 ± 0.74 | 7.2 ± 1.9 | 4.59 ± 1.3 | 7.03 ± 0.77 | 4.5 ± 0.072 |
| MAVEVKYVVIREGEEKMSFTSKKEADAYDKMLDTADLLDTWLTNSPVQMEDEQREALSLWLAEQKDVLSTILKTGKLPSPQVVGAESEEEDASHAA [P0ACY9] | 5.68 ± 0.58 |  | 0.8842 ± 0.0032 | 2.19 ± 0.32 | 0.978 ± 0.016 | 1.17 ± 0.072 | 1.28 | 1.08 | 1.8 ± 0.069 | 0.976 ± 0.2 | 2.4 | 0.932 ± 0.076 |
| MFNNILVVCVGNICRSPTAERLLQRYHPELKVESAGLGALVGKGADPTAISVAAEHQLSLEGHCARQISRRLCRNYDLILTMEKRHIERLCEMAPEMRGKVMLFGHWDNECEIPDPYRKSRETFAAVYTLLERSARQWAQALNAEQV [P0AAB2] | 5.46 |  | 1.13 |  |  |  |  |  |  |  |  |  |
| MAVAMDNAILENILRQVRPLIGQGKVADYIPALATVDGSRLGIAICTVDGQLFQAGDAQERFSIQSISKVLSLVVAMRHYSEEEIWQRVGKDPSGSPFNSLVQLEMEQGIPRNPFINAGALVVCDMLQGRLSAPRQRMLEVVRGLSGVSDISYDTVVARSEFEHSARNAAIAWLMKSFGNFHHDVTTVLQNYFHYCALKMSCVELARTFVFLANQGKAIHIDEPVVTPMQARQINALMATSGMYQNAGEFAWRVGLPAKSGVGGGIVAIVPHEMAIAVWSPELDDAGNSLAGIAVLEQLTKQLGRSVY [P0A6W0] | 5.51 ± 0.69 | 6.48 ± 0.19 |  | 6.07 ± 0.46 | 3.12 ± 0.28 |  | 12.8 ± 0.64 | 5.88 ± 1.1 | 12.2 ± 1.5 | 5.82 ± 0.85 | 13.1 ± 0.95 | 6.52 ± 0.92 |
| MQTFQADLAIVGAGGAGLRAAIAAAQANPNAKIALISKVYPMRSHTVAAEGGSAAVAQDHDSFEYHFHDTVAGGDWLCEQDVVDYFVHHCPTEMTQLELWGCPWSRRPDGSVNVRRFGGMKIERTWFAADKTGFHMLHTLFQTSLQFPQIQRFDEHFVLDILVDDGHVRGLVAMNMMEGTLVQIRANAVVMATGGAGRVYRYNTNGGIVTGDGMGMALSHGVPLRDMEFVQYHPTGLPGSGILMTEGCRGEGGILVNKNGYRYLQDYGMGPETPLGEPKNKYMELGPRDKVSQAFWHEWRKGNTISTPRGDVVYLDLRHLGEKKLHERLPFICELAKAYVGVDPVKEPIPVRPTAHYTMGGIETDQNCETRIKGLFAVGECSSVGLHGANRLGSNSLAELVVFGRLAGEQATERAATAGNGNEAAIEAQAAGVEQRLKDLVNQDGGENWAKIRDEMGLAMEEGCGIYRTPELMQKTIDKLAELQERFKRVRITDTSSVFNTDLLYTIELGHGLNVAECMAHSAMARKESRGAHQRLDEGCTERDDVNFLKHTLAFRDADGTTRLEYSDVKITTLPPAKRVYGGEADAADKAEAANKKEKANG | 5.99 ± 0.19 | 5.68 ± 0.083 | 6.24 ± 0.66 | 5.45 ± 0.11 | 2.97 ± 0.033 | 6.38 ± 0.42 | 12.1 ± 1.9 | 6.2 ± 0.28 | 11.3 ± 1.7 | 6.03 ± 0.064 | 13.4 ± 0.38 | 6.59 ± 0.5 |
| MKRAVVVFSGGQDSTTCLVQALQQYDEVHCVTFDYGQRHRAEIDVARELALKLGARAHKVLDVTLLNELAVSSLTRDSIPVPDYEPEADGIPNTFVPGRNILFLTLAAIYAYQVKAEAVITGVCETDFSGYPDCRDEFVKALNHAVSLGMAKDIRFETPLMWIDKAETWALADYYGKLDLVRNETLTCYNGFKGDGCGHCAACNLRANGLNHYLADKPTVMAAMKQKTGLR | 4.91 ± 0.072 | 4.53 ± 0.16 | 5.02 ± 0.59 | 3.87 ± 0.57 | 2.6 ± 0.17 | 5.36 ± 0.46 | 9.333 ± 0.044 | 4.84 ± 0.59 | 7.72 ± 0.73 |  | 12.4 ± 1.3 | 4.47 ± 0.14 |
| MGKLTGKTALITGALQGIGEGIARTFARHGANLILLDISPEIEKLADELCGRGHRCTAVVADVRDPASVAAAIKRAKEKEGRIDILVNNAGVCRLGSFLDMSDDDRDFHIDINIKGVWNVTKAVLPEMIARKDGRIVMMSSVTGDMVADPGETAYALTKAAIVGLTKSLAVEYAQSGIRVNAICPGYVRTPMAESIARQSNPEDPESVLTEMAKAIPMRRLADPLEVGELAAFLASDESSYLTGTQNVIDGGSTLPETVSVGI | 5.394 ± 0.017 | 4.09 ± 0.14 |  | 4.12 ± 0.29 | 2.91 ± 0.32 | 6.12 ± 0.41 | 10.2 ± 1.1 | 5.35 | 6.28 | 6.25 ± 0.41 | 14.8 ± 0.61 |  |
| MKAPGLPADQQFFADLFSGLVLNPQLLGRVWFASQPASLPVGSLCIDFPRLDIVLRGEYGNLLEAKQQRLVEGEMLFIPARAANLPVNNKPVMLLSLVFAPTWLGLSFYDSRTTSLLHPARQIQLPSLQRGEGEAMLTALTHLSRSPLEQNIIQPLVLSLLHLCRSVVNMPPGNSQPRGDFLYHSICNWVQDNYAQPLTRESVAQFFNITPNHLSKLFAQHGTMRFIEYVRWVRMAKARMILQKYHLSIHEVAQRCGFPDSDYFCRVFRRQFGLTPGEYSARFQG | 5.03 |  |  |  |  | 1.83 |  |  |  |  |  |  |
| MILSAFSLEGKVAVVTGCDTGLGQGMALGLAQAGCDIVGINIVEPTETIEQVTALGRRFLSLTADLRKIDGIPALLDRAVAEFGHIDILVNNAGLIRREDALEFSEKDWDDVMNLNIKSVFFMSQAAAKHFIAQGNGGKIINIASMLSFQGGIRVPSYTASKSGVMGVTRLMANEWAKHNINVNAIAPGYMATNNTQQLRADEQRSAEILDRIPAGRWGLPSDLMGPIVFLASSASDYVNGYTIAVDGGWLAR | 3.57 ± 0.82 | 2.06 ± 0.13 | 2.48 ± 0.36 | 2.31 ± 0.11 | 2.75 ± 0.077 | 4.15 ± 0.16 | 7.26 ± 0.34 | 2.385 ± 0.018 | 3.87 ± 0.81 | 5.03 ± 0.081 | 10.5 ± 0.36 | 2.8 ± 0.69 |
| MKRLLILTALLPFVGFAQPINTLNNPNQPGYQIPSQQRMQTQMQTQQIQQKGMLNQQLKTQTQLQQQHLENQINNNSQRVLQSQPGERNPARQQMLPNTNGGMLNSNRNPDSSLNQQHMLPERRNGDMLNQPSTPQPDIPLKTIGP [P0ADX7] | 5.56 |  | 4.65 | 3.81 |  |  |  |  | 7.44 |  |  |  |
| MQYWGKIIGVAVALLMGGGFWGVVLGLLIGHMFDKARSRKMAWFANQRERQALFFATTFEVMGHLTKSKGRVTEADIHIASQLMDRMNLHGASRTAAQNAFRVGKSDNYPLREKMRQFRSVCFGRFDLIRMFLEIQIQAAFADGSLHPNERAVLYVIAEELGISRAQFDQFLRMMQGGAQFGGGYQQQTGGGNWQQAQRGPTLEDACNVLGVKPTDDATTIKRAYRKLMSEHHPDKLVAKGLPPEMMEMAKQKAQEIQQAYELIKQQKGFK |  | 6.42 ± 1.5 | 5.92 ± 0.42 | 5.91 ± 0.58 | 2.98 ± 0.14 | 5.97 ± 0.2 | 11.2 ± 0.66 | 6.24 ± 0.77 | 11.8 ± 1 | 6.61 ± 0.12 | 12.7 ± 1 |  |
| MLRIIDTETCGLQGGIVEIASVDVIDGKIVNPMSHLVRPDRPISPQAMAIHRITEAMVADKPWIEDVIPHYYGSEWYVAHNASFDRRVLPEMPGEWICTMKLARRLWPGIKYSNMALYKTRKLNVQTPPGLHHHRALYDCYITAALLIDIMNTSGWTAEQMADITGRPSLMTTFTFGKYRGKAVSDVAERDPGYLRWLFNNLDSMSPELRLTLKHYLENT [P0AEK0] | 5.44 ± 2 | 1.56 ± 0.12 | 2.29 ± 0.6 | 0.987 ± 0.0014 | 1.24 ± 0.16 | 2 ± 0.16 | 2.32 | 1.37 ± 0.12 | 2.04 ± 0.23 | 1.52 ± 0.42 | 3.43 | 1.2033 ± 0.0011 |

From the supplement of paper PMC11246515
